Data on one protein can be found in publication PMC5291247, “The histone chaperone Vps75 forms multiple oligomeric assemblies capable of mediating exchange between histone H3–H4 tetramers and Asf1–H3–H4 complexes” (Nucleic Acids Research, 2016).

The data set deals with the molecule itself. Kind of data set: crystal structure; Vps75 (1-225) crystallised from the VAH preparation; sitting drop, 0.1 M sodium cacodylate pH 6.5, 25% PEG 4000; four monomers in the asymmetric unit, two tetrameric assemblies in the lattice.

B1: Vps75 (1–225) (domain or fragment, UniProt P53853 1-225, looked up)
chain: MMSDQENENEHAKAFLGLAKCEEEVDAIEREVELYRLNKMKPVYEKRDAYIDEIAEFWKIVLSQHVSFANYIRASDFKYIDTIDKIKVEWLALESEMYDTRDFSITFHFHGIEGDFKEQQVTKVFQIKKGKDDQEDGILTSEPVPIEWPQSYDSINPDLIKDKRSPEGKKKYRQGMKTIFGWFRWTGLKPGKEFPHGDSLASLFSEEIYPFCVKYYAEAQRDLED
notes: Vps75, yeast, residues 1-225 (C-terminally truncated), as crystallised; Crystallised from the Vps75-Asf1-H3-H4 preparation; only Vps75 is in the crystal; also called Vps75 tetramer; Vps75 (1-225) dimer
What is called stoichiometry N is the number of molecules, sites or subunits per partner or assembly. With B1, the “stoichiometry N” value turned out to be 4.
